This note sets out measurements from patent US5849261.

Where “and” joins values, the source holds several entries; their conditions need not be identical. Identical values can stand only once. No end group written: not given here.

The target in experiment [1] is VIP receptor on human cells (human). Briefly: competition with 125I-VIP on HMC1 cells.
For experiment [2] the target is unchanged. The experiment is described as follows: competition with 125I-VIP on HT29 cells.
For experiment [3] the target is unchanged. Briefly: competition with 125I-VIP on human PMNCs.
Experiment [4] shares this target. The experiment is described as follows: competition with 125I-VIP on PANC1 cells.
The target is the same in experiment [5]. Briefly: competition with 125I-VIP on COLO320 cells.
Experiment [6] has the same target. The experiment is described as follows: competition with 125I-VIP on human platelets.
Experiment [7] addresses VIP receptor of guinea pig lung membranes (guinea pig). The experiment is described as follows: competition with 0.01 nM 125I-VIP, guinea pig lung membranes.
The target in experiment [8] is VIP receptor on human cells (human). The experiment is described as follows: competition with 125I-VIP on KU812 cells.

B1: ReO-complexed P915 (peptide)
peptide: AGCHSDAVFTDNYTRLRKQMAVKKYLNSILN-NH2
modifications: also: non-radioactive ReO complexed to the chelating moiety
As usually defined, the IC50 is the concentration that gives 50% inhibition. A lower IC50 goes with greater potency in that assay. With B1, the IC50 was 15 nM in experiment [1]; 7 nM in experiment [2]; 7.5 nM in experiment [3]; 14 nM in experiment [4]; 6.7 nM in experiment [5]; 4.5 nM in experiment [6]. For the same molecule, in experiment [7], the IC50 was < 10 nM and > 1 nM.

B2: ReO-complexed P887 (peptide)
peptide: HSDAVFTDNYTRLRKQMAVKKYLNSILNKGC
modifications: (ε-K): lysine 29 linked through its ε-amino group; C-terminal amide; non-radioactive ReO complexed to the chelating moiety
B2: the IC50 in experiment [1] was 8.5 nM; in experiment [2], 6.6 nM; in experiment [3], 6 nM; in experiment [8] it was 5.2 nM; in experiment [4], > 10 nM; in experiment [5], 6 nM. In addition, the IC50 in experiment [6] was found to be 6 nM; in experiment [7] it was 20 nM.

B3: P887 (peptide)
peptide: HSDAVFTDNYTRLRKQMAVKKYLNSILNKGC
modifications: (ε-K): lysine 29 linked through its ε-amino group to the carboxyl group of the preceding residue; C-terminal amide
For B3, in experiment [7], the % inhibition @ 0.01 µM stood at 68% and the IC50 is < 10 nM.

B4: ReO-complexed P917 (peptide)
peptide: HSDAVFTDNYTRLRKQMAVKKYLNSILNC
modifications: C-terminal C(BAT): S-(N6,N9-bis(2-mercapto-2-methylpropyl)-6,9-diazanonan-1-yl)cysteine; C-terminal amide; non-radioactive ReO complexed to the chelating moiety
What is called Ki is a measure of affinity in units of concentration, obtained from inhibition or displacement. Read a high Ki as weaker binding. Regarding B4, the IC50 in experiment [1] worked out at 7 nM; in experiment [2] it was 2.2 nM; in experiment [3] it was 2.7 nM; in experiment [8], 1 nM; in experiment [4], 3.7 nM; in experiment [5], 2 nM. In addition, the IC50 came to 0.8 nM in experiment [6] and 6.9 nM in experiment [7]. In experiment [7], this molecule came in with a Ki of 6.7 nM.

B5: P915 (peptide)
peptide: AGCHSDAVFTDNYTRLRKQMAVKKYLNSILN-NH2
For B5, the 50% inhibitory concentration (IC50) in experiment [7] was 50 nM.

B6: ReO-complexed P916 (peptide)
peptide: HSDAVFTDNYTRLRKQMAVKKYLNSILNGGC-NH2
modifications: also: non-radioactive ReO complexed to the chelating moiety
For B6, the IC50 in experiment [1] worked out at 7 nM; in experiment [2] it was 8.5 nM; in experiment [3] it was 6.5 nM; in experiment [4] it was 12.5 nM; in experiment [5], 4 nM; in experiment [6] it was 3 nM. For the same molecule, the IC50 in experiment [7] came to 20 nM.

B7: Vasoactive intestinal peptide (VIP) (peptide)
peptide: HSDAVFTDNYTRLRKQMAVKKYLNSILN-NH2
As to B7, the IC50 in experiment [1] stood at 7 nM; in experiment [2], 1.2 nM; in experiment [3], 5.5 nM; in experiment [8], 0.8 nM; in experiment [4], 4.2 nM; in experiment [5], 1.5 nM. In experiment [6], this molecule gave an IC50 of 4 nM.

B8: P916 (peptide)
peptide: HSDAVFTDNYTRLRKQMAVKKYLNSILNGGC-NH2
As for B8, in experiment [7], the % inhibition @ 0.01 µM amounted to 79% and the IC50 is < 10 nM.

B9: P917 (peptide)
peptide: HSDAVFTDNYTRLRKQMAVKKYLNSILNC
modifications: C-terminal C(BAT): S-(N6,N9-bis(2-mercapto-2-methylpropyl)-6,9-diazanonan-1-yl)cysteine; C-terminal amide
On to B9, for which, in experiment [7], the % inhibition @ 0.01 µM amounted to 83% and the IC50 was < 10 nM.
